Data on two molecules can be found in US20210163598A1 (BEIJING PROTEOME RESEARCH CENTER, published 2021).

Test [1] concerns the target T1, BTN3A1 overexpressed on BT474 cells (BT474-BTN3A1) (UniProt O00481 30-513, limits assumed).
T1 construct: whole, on cells; Expressed from pIRES2-EGFP-BTN3A1 in BT474 cells
Put plainly: flow cytometric adhesion assay, murine LSECtin-Fc detected with anti-IgG. From the text: (§1) 3. Each cell in the step 2 was obtained by digestion and collection, and then was adhered to human LSECtin protein (R&D, 2947-CL) and mouse LSECtin-Fc protein, respectively, and the human LSECtin adhesion rate was detected by mouse anti-human LSECtin antibody CCB059. […] mouse LSECtin adhesion rate was detected by anti-IgG (Biolegend, 405307), and the adhesion ratio was detected by flow cytometry. Details of adhesion assay have been published in the method of “Tang L, Yang J, Tang X, et al. The DC-SIGN family member LSECtin is a novel ligand of CD44 on activated T cells[J], European journal of immunology. 2010, 40(4): 1185-1191”.
On the technique in general: In flow cytometry, cells or beads pass a laser one at a time.

The target in test [2] is BTN3A2 overexpressed on BT474 cells (BT474-BTN3A2) (Homo sapiens (Human), UniProt P78410 30-334). The description is as above.
Chain of BTN3A2 overexpressed on BT474 cells (BT474-BTN3A2) (P78410 30-334 limits assumed): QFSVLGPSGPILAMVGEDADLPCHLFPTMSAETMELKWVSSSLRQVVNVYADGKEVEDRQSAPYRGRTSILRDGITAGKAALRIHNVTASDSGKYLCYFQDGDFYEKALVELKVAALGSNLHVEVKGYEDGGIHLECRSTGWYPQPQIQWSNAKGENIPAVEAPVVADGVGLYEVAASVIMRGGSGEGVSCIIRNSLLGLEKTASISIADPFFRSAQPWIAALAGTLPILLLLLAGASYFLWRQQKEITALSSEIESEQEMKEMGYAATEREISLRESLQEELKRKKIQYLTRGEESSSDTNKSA
From the text: as §1

Test [3] concerns the target T1, BTN3A1 overexpressed on BT474 cells …. Put plainly: flow cytometric adhesion assay, human LSECtin detected with antibody CCB059.
From the text: as §1

T1 sequence (O00481 30-513 limits assumed): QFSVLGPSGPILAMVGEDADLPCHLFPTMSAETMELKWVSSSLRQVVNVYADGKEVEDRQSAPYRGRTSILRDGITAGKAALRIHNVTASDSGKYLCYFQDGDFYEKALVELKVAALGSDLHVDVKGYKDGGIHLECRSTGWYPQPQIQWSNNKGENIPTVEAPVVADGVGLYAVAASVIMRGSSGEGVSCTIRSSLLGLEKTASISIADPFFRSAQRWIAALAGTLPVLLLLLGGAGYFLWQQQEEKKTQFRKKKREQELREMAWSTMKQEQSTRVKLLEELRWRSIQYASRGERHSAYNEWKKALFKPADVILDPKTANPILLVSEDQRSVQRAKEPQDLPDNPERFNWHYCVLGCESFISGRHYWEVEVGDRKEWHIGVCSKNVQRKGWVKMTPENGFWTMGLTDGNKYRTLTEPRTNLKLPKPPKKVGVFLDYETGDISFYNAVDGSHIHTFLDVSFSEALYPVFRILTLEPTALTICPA

B1: mouse LSECtin-Fc protein (Fc fusion, UniProt Q8BNX1 52-294, looked up)
chain: LLSSASSKLRVLLSHQDLLRTNASEQKMTLSSLKDDIGACRNCCSVTKAQLQTTLAEFKDIQAKLMEQESILKELQERVTQDLAKASRDRENIRSELFQALEAVKRQNSSCEQCPPSWLPFQGSCYYFSETQATWDTAQSYCGGQGAHLVIVRGLNEQGFLSQHTRGRGYWLGLRAVRHLNKIQGYRWVDGASLNFSHWNSGEPNDSRGHEDCIMMLHSGLWNDAPCTNERDGWICEKRSSCY
notes: also called murine LSECtin-Fc; murine LSECtin; not shown: Fc part
On to B1, for which the binding result in test [1] and in test [2] was “no binding” in each case.

B2: human LSECtin protein (R&D, 2947-CL) (ligand)
chain: SKASTERAALLDGHDLLRTNASKQTAALGALKEEVGDCHSCCSGTQAQLQTTRAELGEAQAKLMEQESALRELRERVTQGLAEAGRGREDVRTELFRALEAVRLQNNSCEPCPTSWLSFEGSCYFFSVPKTTWAAAQDHCADASAHLVIVGGLDEQGFLTRNTRGRGYWLGLRAVRHLGKVQGYQWVDGVSLSFSHWNQGEPNDAWGRENCVMMLHTGLWNDAPCDSEKDGWICEKRHNC
notes: Bought recombinant protein (R&D 2947-CL); also called human recombinant protein LSECtin; Liver Sinusoidal Endothelial Cells lectin
On to B2, for which the binding result in test [3] was “no binding”.
